Measured values taken from patent US20210221911A1 (NATIONAL CANCER CENTER JAPAN, published 2021).

B1: 1084ADC (ADC composed of the monoclonal antibody produced by clone No. 1084 and monomethyl auristatin E) (antibody, V domains shown)
VH: QVQLKESGPGLVQPSQTLSLTCIVSGFSLTNYNVHWVRQPAGAGLEWMGVIWTDGKTDYNSTLQSRLSISRDTSKSQVFLKMNSLQAEDIATYYCARDWDTGFDYWGQGVMVTVSS
VL: DIKMTQSPSSLSASLGERVTISCRASENINNILAWYQKKEDGSVKLLIHYTSNLQSGVPSRFSGSGSGKDYSLTISGLESEDIATYYCQQAYTPYAFGAGTKLELK
modifications: MMAE joined through a maleimide-PEG12-Val-Cit-PABA linker to sulfhydryl groups of the reduced antibody; sites and number not stated
notes: Whole rat monoclonal antibody from a rat-mouse hybridoma, conjugated to MMAE
B2: monoclonal antibody produced by clone No. 1084 (antibody, V domains shown)
VH: B1 VH
VL: B1 VL

Assays:
[1] = target: T1, recombinant human tissue factor (rhTF), residues 33 to 251 of hTF with C-terminal His6 tag (human, UniProt P13726 33-251); assay: SPR, ratio of koff values, reference 1849ADC
T1 construct: range 33-251; also called rhTF antigen
Protocol: (§1) SPR measurement was performed by using BiaCore T200 (GE Healthcare). The recombinant human tissue factor antigen (rhTF antigen) was subjected to buffer exchange to 10 mM sodium acetate solution (pH 5.0) and the final protein concentration was adjusted to 2 to 10 μg/mL. Subsequently, contact time was set to 30 seconds and the antigen was immobilized on a CM5 sensor chip (GE Healthcare) according to a basic protocol by using amine coupling. Then, 5 dilution series of the antibody solution were prepared by diluting each ADC solution in DPBS so that the final concentrations thereof became 320 nM, 160 nM, 80 nM, 40 nM, and 20 nM.

[2] = target: T1, recombinant human tissue factor (rhTF), …; assay: SPR, Biacore T200, rhTF on CM5 chip, single-cycle kinetics, bivalent analyte model
Protocol: as §1

[3] = target: T2, human tissue factor on cells expressing it strongly such as MCF7 cells (human, UniProt P13726 33-295); assay: flow cytometry screen of hybridomas on cells expressing TF
T2 construct: whole, on cells; also called TF
Description: (§2) Recombinant human tissue factor micellized using FCA adjuvant (rhTF, SEQ ID NO: 13) was intraperitoneally administered to Wister rats. After several immunizations, rat antisera were examined by ELISA using a solid phase having rhTFs thereon. A spleen was excised from a rat individual that had shown an increased antibody titer and splenocytes were obtained therefrom. The splenocytes and p3X63 mouse myeloma cells were fused by a PEG technique and cultivated in a HAT culture medium to select hybridoma cells. The hybridoma cells were screened to select those that reacted positively to rhTFs in ELISA and also reacted positively to cells expressing human tissue factor strongly such as an MCF7 cell in flow cytometry analysis. The selected hybridoma cells were cloned by limiting dilution to establish hybridoma cell clones that produced anti-tissue factor antibodies.

[4] = target: recombinant human tissue factor (rhTF, SEQ ID NO: 13) (human, UniProt P13726 33-251); assay: ELISA screen of hybridomas on solid-phase rhTF
Description: as §2

Binder | koff relative to 1849ADC [1] [times] | Kd [2] [nM] | koff [2] [s⁻¹] | kon [2] [M⁻¹ s⁻¹] | binding result [3] | binding result [4]
B1 | 39.3 | 35 | 0.000825 | 26100 |  | 
B2 |  |  |  |  | binds | binds
